# According to the supplement of paper PMC10065799, “High-throughput profiling of sequence recognition by tyrosine kinases and SH2 domains using bacterial peptide display” (eLife, 2023):
# Biological target: SHP2-C SH2
# Test: SH2 binding enrichment of the phosphorylated peptide, bacterial display (enrichment ratio); higher = better substrate or ligand; peptides without Tyr show the background
# 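Throughout, for SH2 binding enrichment of the phosphorylated peptide, bacterial display: peptide library displayed on the E. coli surface as eCPX fusions, selected cells deep-sequenced, score is each peptide's frequency after selection divided by its frequency in the input.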
# 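Throughout, for phosphorylation enrichment, bacterial display: 11-residue human phosphosite peptides and single-mutation variants displayed on the E. coli surface, counted by deep sequencing, each peptide's frequency after selection divided by its frequency in the unselected input library; frequency after pTyr selection over input frequency; kinase dosed for 20-30% of maximal phosphorylation in three min.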
row,Sequence,SH2 binding enrichment
1,QRRLVYYERGA [RYR1_Y245_G248R],0.677
2,SCRSKYVGLWG [KCNQ1_Y184_G179S],0.721
3,RFLERYIYNRQ [HLA-DPB1_Y57_E62Q],1.2
4,GRTPLYMDRQG [AGXT_Y194_G190R],1.12
5,STEAIYWRYSK [SH3PXD2B_Y42_R43W],0.551
6,KGEPQYSSHSS [SIPA1L3_Y1265],0.408
7,IPTPAYQSSPA [PDCD6IP_Y727],0.566
8,SSMIDYNPLEK [MYOC_Y479],0.641
9,HCHEGYILHGA [SVEP1_Y2921],1.21
10,ENGPYYTSYPP [GDAP2_Y488],0.708
11,PLLTDYSPQLQ [OTC_Y345_S340P],0.656
12,VDSGVYAVPPP [BCAR1_Y410],0.624
13,ATPKGYELDAS [OTC_Y223_P225L],0.665
14,GHPFAYDWISI [BEST1_Y227_L224P_YF],0.869
15,GIMEEYQLPYY [BMPR1A_Y453_V450M],0.44
16,IKSSIYDNRKE [ARAP2_Y380],0.741
17,GGQSVYHVNLH [HINT1_Y109_H112N],0.663

row,Sequence,SH2 binding enrichment
1,HEKFLYFLPAS [DYNC2H1_Y346],0.868
2,TMKSHYMELYD [BBS2_Y644_R643H],1.84
3,PGPPGYCDSSQ [COL12A1_Y3043],0.692
4,VLTSKYPGGGG [HBA1_Y141_R142P],0.612
5,TQKLAYMELQQ [CENPF_Y700],1.17
6,FGMSTYITRED [FNDC3B_Y180_YF],0.745
7,DSFWSYCNAVA [SLC20A2_Y436_S434W_YF],0.637
8,MGSYNYLGFAW [SPTLC2_Y178_R183W],0.845
9,KAIMTYVSSFF [ACTN4_Y260_YF],0.878
10,GMRHGYGVRQS [JPH2_Y141],1.41
11,PFWKLYESVKK [MKI67_Y241],0.625
12,LAGRFYALKSM [CKB_Y174_YF],1.11
13,ENAGFYFQVSA,0.658
14,NPQKPYFIRLY [WAS_Y83_S82P],0.699
15,DVLEFYNSKKT [PAK1_Y131],0.576
16,GIKAAYEAERG [LMNA_Y81_L85R],0.685

# Biological target: Grb2 SH2 (UniProt P62993)
# Sequence (P62993 whole entry, looked up): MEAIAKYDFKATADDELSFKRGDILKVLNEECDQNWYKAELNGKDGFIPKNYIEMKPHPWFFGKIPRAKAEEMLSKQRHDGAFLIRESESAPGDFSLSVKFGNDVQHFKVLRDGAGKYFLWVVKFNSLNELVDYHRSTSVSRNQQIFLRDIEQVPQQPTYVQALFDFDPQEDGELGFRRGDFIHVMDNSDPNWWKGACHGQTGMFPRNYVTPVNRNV
# Test: as above
row,Sequence,SH2 binding enrichment
1,QRRLVYYERGA [RYR1_Y245_G248R],0.951
2,SCRSKYVGLWG [KCNQ1_Y184_G179S],1.18
3,RFLERYIYNRQ [HLA-DPB1_Y57_E62Q],0.919
4,GRTPLYMDRQG [AGXT_Y194_G190R],0.891
5,STEAIYWRYSK [SH3PXD2B_Y42_R43W],0.752
6,KGEPQYSSHSS [SIPA1L3_Y1265],0.853
7,IPTPAYQSSPA [PDCD6IP_Y727],0.767
8,SSMIDYNPLEK [MYOC_Y479],0.744
9,HCHEGYILHGA [SVEP1_Y2921],1.01
10,ENGPYYTSYPP [GDAP2_Y488],0.761
11,PLLTDYSPQLQ [OTC_Y345_S340P],1
12,VDSGVYAVPPP [BCAR1_Y410],0.863
13,ATPKGYELDAS [OTC_Y223_P225L],0.878
14,GHPFAYDWISI [BEST1_Y227_L224P_YF],1.36
15,GIMEEYQLPYY [BMPR1A_Y453_V450M],0.845
16,IKSSIYDNRKE [ARAP2_Y380],0.934
17,GGQSVYHVNLH [HINT1_Y109_H112N],0.698

row,Sequence,SH2 binding enrichment
1,HEKFLYFLPAS [DYNC2H1_Y346],0.925
2,TMKSHYMELYD [BBS2_Y644_R643H],1.22
3,PGPPGYCDSSQ [COL12A1_Y3043],0.979
4,VLTSKYPGGGG [HBA1_Y141_R142P],0.737
5,TQKLAYMELQQ [CENPF_Y700],0.934
6,FGMSTYITRED [FNDC3B_Y180_YF],0.802
7,DSFWSYCNAVA [SLC20A2_Y436_S434W_YF],1.05
8,MGSYNYLGFAW [SPTLC2_Y178_R183W],0.682
9,KAIMTYVSSFF [ACTN4_Y260_YF],0.962
10,GMRHGYGVRQS [JPH2_Y141],1.53
11,PFWKLYESVKK [MKI67_Y241],1.16
12,LAGRFYALKSM [CKB_Y174_YF],1.23
13,ENAGFYFQVSA,0.629
14,NPQKPYFIRLY [WAS_Y83_S82P],0.909
15,DVLEFYNSKKT [PAK1_Y131],0.731
16,GIKAAYEAERG [LMNA_Y81_L85R],0.83

# Biological target: c-Src SH2
# Test: as above
row,Sequence,SH2 binding enrichment
1,QRRLVYYERGA [RYR1_Y245_G248R],0.662
2,SCRSKYVGLWG [KCNQ1_Y184_G179S],0.866
3,RFLERYIYNRQ [HLA-DPB1_Y57_E62Q],0.699
4,GRTPLYMDRQG [AGXT_Y194_G190R],0.542
5,STEAIYWRYSK [SH3PXD2B_Y42_R43W],0.355
6,KGEPQYSSHSS [SIPA1L3_Y1265],0.411
7,IPTPAYQSSPA [PDCD6IP_Y727],0.567
8,SSMIDYNPLEK [MYOC_Y479],0.373
9,HCHEGYILHGA [SVEP1_Y2921],0.812
10,ENGPYYTSYPP [GDAP2_Y488],0.763
11,PLLTDYSPQLQ [OTC_Y345_S340P],0.445
12,VDSGVYAVPPP [BCAR1_Y410],0.434
13,ATPKGYELDAS [OTC_Y223_P225L],0.627
14,GHPFAYDWISI [BEST1_Y227_L224P_YF],1.72
15,GIMEEYQLPYY [BMPR1A_Y453_V450M],5.46
16,IKSSIYDNRKE [ARAP2_Y380],0.445
17,GGQSVYHVNLH [HINT1_Y109_H112N],0.491

row,Sequence,SH2 binding enrichment
1,HEKFLYFLPAS [DYNC2H1_Y346],0.676
2,TMKSHYMELYD [BBS2_Y644_R643H],10.3
3,PGPPGYCDSSQ [COL12A1_Y3043],0.603
4,VLTSKYPGGGG [HBA1_Y141_R142P],0.366
5,TQKLAYMELQQ [CENPF_Y700],0.931
6,FGMSTYITRED [FNDC3B_Y180_YF],0.563
7,DSFWSYCNAVA [SLC20A2_Y436_S434W_YF],0.583
8,MGSYNYLGFAW [SPTLC2_Y178_R183W],0.477
9,KAIMTYVSSFF [ACTN4_Y260_YF],0.677
10,GMRHGYGVRQS [JPH2_Y141],1.15
11,PFWKLYESVKK [MKI67_Y241],0.766
12,LAGRFYALKSM [CKB_Y174_YF],1.12
13,ENAGFYFQVSA,0.537
14,NPQKPYFIRLY [WAS_Y83_S82P],0.542
15,DVLEFYNSKKT [PAK1_Y131],0.752
16,GIKAAYEAERG [LMNA_Y81_L85R],0.553

# Biological target: FGFR3 (UniProt P22607)
# Sequence (P22607 whole entry, looked up): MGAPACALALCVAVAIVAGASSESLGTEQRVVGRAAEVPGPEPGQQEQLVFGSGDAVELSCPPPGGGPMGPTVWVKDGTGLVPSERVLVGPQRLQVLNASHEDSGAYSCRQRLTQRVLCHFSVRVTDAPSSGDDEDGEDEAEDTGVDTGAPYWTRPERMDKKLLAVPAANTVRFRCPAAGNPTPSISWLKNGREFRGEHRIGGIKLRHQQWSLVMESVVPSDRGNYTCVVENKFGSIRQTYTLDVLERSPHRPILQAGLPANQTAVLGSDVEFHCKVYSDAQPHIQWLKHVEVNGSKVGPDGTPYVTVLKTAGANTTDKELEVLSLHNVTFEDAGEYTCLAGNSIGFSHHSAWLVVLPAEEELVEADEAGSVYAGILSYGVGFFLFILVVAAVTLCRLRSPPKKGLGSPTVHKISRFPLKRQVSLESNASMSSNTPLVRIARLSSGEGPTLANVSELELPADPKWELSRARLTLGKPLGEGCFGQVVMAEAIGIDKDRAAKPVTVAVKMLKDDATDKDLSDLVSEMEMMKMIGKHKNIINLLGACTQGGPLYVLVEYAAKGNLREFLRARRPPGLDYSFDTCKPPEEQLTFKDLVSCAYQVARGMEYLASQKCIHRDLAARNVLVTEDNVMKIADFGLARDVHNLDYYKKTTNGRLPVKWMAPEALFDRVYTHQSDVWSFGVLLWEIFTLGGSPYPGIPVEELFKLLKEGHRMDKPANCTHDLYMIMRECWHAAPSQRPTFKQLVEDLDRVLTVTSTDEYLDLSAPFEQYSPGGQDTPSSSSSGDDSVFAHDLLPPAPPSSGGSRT
# Test: phosphorylation enrichment, bacterial display (enrichment ratio); higher = better substrate or ligand; peptides without Tyr show the background
row,Sequence,phosphorylation enrichment
1,QRRLVYYERGA [RYR1_Y245_G248R],0.48
2,SCRSKYVGLWG [KCNQ1_Y184_G179S],0.456
3,RFLERYIYNRQ [HLA-DPB1_Y57_E62Q],0.805
4,GRTPLYMDRQG [AGXT_Y194_G190R],0.415
5,STEAIYWRYSK [SH3PXD2B_Y42_R43W],1.53
6,KGEPQYSSHSS [SIPA1L3_Y1265],0.421
7,IPTPAYQSSPA [PDCD6IP_Y727],0.422
8,SSMIDYNPLEK [MYOC_Y479],0.595
9,HCHEGYILHGA [SVEP1_Y2921],0.768
10,ENGPYYTSYPP [GDAP2_Y488],1.89
11,PLLTDYSPQLQ [OTC_Y345_S340P],1.19
12,VDSGVYAVPPP [BCAR1_Y410],1.01
13,ATPKGYELDAS [OTC_Y223_P225L],0.557
14,GHPFAYDWISI [BEST1_Y227_L224P_YF],1.29
15,GIMEEYQLPYY [BMPR1A_Y453_V450M],1.57
16,IKSSIYDNRKE [ARAP2_Y380],0.504
17,GGQSVYHVNLH [HINT1_Y109_H112N],0.376

row,Sequence,phosphorylation enrichment
1,HEKFLYFLPAS [DYNC2H1_Y346],1.82
2,TMKSHYMELYD [BBS2_Y644_R643H],0.64
3,PGPPGYCDSSQ [COL12A1_Y3043],0.941
4,VLTSKYPGGGG [HBA1_Y141_R142P],0.342
5,TQKLAYMELQQ [CENPF_Y700],0.629
6,FGMSTYITRED [FNDC3B_Y180_YF],0.676
7,DSFWSYCNAVA [SLC20A2_Y436_S434W_YF],0.805
8,MGSYNYLGFAW [SPTLC2_Y178_R183W],2.24
9,KAIMTYVSSFF [ACTN4_Y260_YF],0.647
10,GMRHGYGVRQS [JPH2_Y141],0.405
11,PFWKLYESVKK [MKI67_Y241],0.703
12,LAGRFYALKSM [CKB_Y174_YF],0.991
13,ENAGFYFQVSA,0.721
14,NPQKPYFIRLY [WAS_Y83_S82P],0.675
15,DVLEFYNSKKT [PAK1_Y131],0.718
16,GIKAAYEAERG [LMNA_Y81_L85R],0.487
